# Assay results as given in patent US20240132578A1.
# Key:
# Experiment in all cases: cell-based or functional assay
# [1] = biological target: HIV-1 92BR020 envelope (Env) on pseudovirus (HIV-1)
# [2] = biological target: HIV-1 92RW020 envelope (Env) on pseudovirus (HIV-1)
# [3] = biological target: HIV-1 Env of isolate 92BR020, clade B (HIV-1)
# [4] = biological target: HIV-1 Env of isolate 92UG037 (clade A pseudovirus) (HIV-1)
# [5] = biological target: HIV-1 Env of isolate 92UG046 (clade D pseudovirus) (HIV-1)
# [6] = biological target: HIV-1 Env of isolate 93TH305, clade B (HIV-1)
# [7] = biological target: HIV-1 Env of isolate MGRM-Chronic-B-001, clade B (HIV-1)
# [8] = biological target: HIV-1 Env of isolate MGRM-D-018 (clade D pseudovirus) (HIV-1)
# [9] = biological target: HIV-1 Env of isolate MGRM-D-026 (clade D pseudovirus) (HIV-1)
# [10] = biological target: HIV-1 Env of pseudovirus MGRM-F1-004 (clade F) (HIV-1)
# [11] = biological target: HIV-1 Env of pseudovirus MGRM-G-011 (HIV-1)
# [12] = biological target: HIV-1 Env of pseudovirus MGRM-G-014 (HIV-1)
# [13] = biological target: HIV-1 Env of pseudovirus MGRM-G-016 (HIV-1)
# [14] = biological target: HIV-1 MGRM-AE-001 Env (pseudovirus) (HIV-1)
# [15] = biological target: HIV-1 MGRM-AG-009 Env (pseudovirus) (HIV-1)
# [16] = biological target: HIV-1 envelope glycoprotein (Env) of isolate MGRM-C-002 (HIV-1)
# [17] = biological target: HIV-1 Env of isolate 98CN009 (pseudovirus) (HIV-1)
# [18] = biological target: HIV-1 Env of isolate CMU02 (subtype AE) (HIV-1)
# [19] = biological target: HIV-1 Env of isolate MGRM-A-004 (pseudovirus) (HIV-1)
# [20] = biological target: HIV-1 Env of isolate MGRM-AE-005 (subtype AE) (HIV-1)
# [21] = biological target: HIV-1 Env of isolate MGRM-D-018 (pseudovirus) (HIV-1)
# [22] = biological target: HIV-1 Env of isolate MGRM-F1-008 (HIV-1)
# [23] = biological target: HIV-1 Env of isolate MGRM-F1-010 (HIV-1)
# [24] = biological target: HIV-1 Env of isolate MGRM-F1-017 (HIV-1)
# [25] = biological target: HIV-1 Env of pseudovirus isolate MGRM-C-008 (clade C) (HIV-1)
# [26] = biological target: HIV-1 JR-CSF Env N301A (HIV-1 (isolate JR-CSF, clade B)) (UniProt P20871)
# [27] = biological target: HIV-1 92BR020 Env (HIV-1)
# [28] = biological target: HIV-1 92UG005 envelope protein (Env) on pseudovirus (HIV-1)
# [29] = biological target: HIV-1 MGRM-D-018 envelope protein (Env) on pseudovirus (HIV-1)
# 1443_C16 (PG16) (TCN-116) (antibody), sequence (VH): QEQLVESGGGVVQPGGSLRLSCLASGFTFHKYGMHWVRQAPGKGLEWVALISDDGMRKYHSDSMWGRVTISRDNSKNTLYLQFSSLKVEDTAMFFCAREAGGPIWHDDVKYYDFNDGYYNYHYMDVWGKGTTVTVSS
# 1443_C16 (PG16) (TCN-116) (antibody), sequence (VL): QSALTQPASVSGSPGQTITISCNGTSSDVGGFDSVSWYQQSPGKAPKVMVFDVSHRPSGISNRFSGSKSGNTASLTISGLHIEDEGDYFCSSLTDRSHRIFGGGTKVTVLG
Substance,neutralization IC50 [1],neutralization IC50 [2],"IC50 (µg/ml), pseudovirus neutralization [3]","IC50 (µg/ml), pseudovirus neutralization [4]","IC50, pseudovirus neutralization [5]","IC50 (µg/ml), pseudovirus neutralization [6]","IC50 (µg/ml), pseudovirus neutralization [7]","IC50, pseudovirus neutralization [8]","IC50, pseudovirus neutralization [9]",IC50 [10],"IC50 (µg/ml), pseudovirus neutralization [11]","IC50 (µg/ml), pseudovirus neutralization [12]","IC50 (µg/ml), pseudovirus neutralization [13]","IC50 (µg/ml), pseudovirus neutralization [14]","IC50 (µg/ml), pseudovirus neutralization [15]","IC50 (µg/ml), pseudovirus neutralization [16]","IC50 (µg/mL), pseudovirus neutralization [17]","IC50, pseudovirus neutralization [18]","IC50 (µg/mL), pseudovirus neutralization [19]","IC50, pseudovirus neutralization [20]",further results
1495_C14 (PGC14) (antibody),0.637 µg/mL,28.6 µg/mL,4 µg/mL,> 50 µg/mL,> 50 µg/mL,6 µg/mL,> 50 µg/mL,> 50 µg/mL,> 50 µg/mL,> 50 µg/mL,> 50 µg/mL,> 50 µg/mL,> 50 µg/mL,> 50 µg/mL,> 50 µg/mL,> 50 µg/mL,,,,,
2F5 (antibody),> 50 µg/mL,3.37 µg/mL,> 50 µg/mL,3.24 µg/mL,> 50 µg/mL,7.61 µg/mL,0.55 µg/mL,4.05 µg/mL,4.37 µg/mL,4.31 µg/mL,1.16 µg/mL,9.65 µg/mL,16.8 µg/mL,0.29 µg/mL,24.8 µg/mL,44.7 µg/mL,,,,,
5136_H01 (PGT-131) (antibody),,,,,,,,,,,,,,,,,4.05 µg/mL,> 50 µg/mL,> 50 µg/mL,0.017 µg/mL,"IC50 (µg/mL), pseudovirus neutralization [21]: 0.148 µg/mL; IC50 (µg/mL), pseudovirus neutralization [22]: 2.74 µg/mL; IC50 (µg/mL), pseudovirus neutralization [23]: > 50 µg/mL; IC50 (µg/mL), pseudovirus neutralization [24]: > 50 µg/mL; IC50, pseudovirus neutralization [25]: > 50 µg/mL; Fold IC50 increase relative to wild-type [26]: > 170 fold"
b12 (antibody),27.5 µg/mL,> 50 µg/mL,> 50 µg/mL,> 50 µg/mL,0.07 µg/mL,4.17 µg/mL,0.75 µg/mL,1.39 µg/mL,1.55 µg/mL,> 50 µg/mL,> 50 µg/mL,> 50 µg/mL,> 50 µg/mL,25.9 µg/mL,> 50 µg/mL,> 50 µg/mL,,,,,
5114_A19 (PGT-128) (antibody),,,,,,,,,,,,,,,,,0.025 µg/mL,> 50 µg/mL,> 50 µg/mL,0.032 µg/mL,"IC50 (µg/mL), pseudovirus neutralization [21]: 0.008 µg/mL; IC50 (µg/mL), pseudovirus neutralization [22]: > 50 µg/mL; IC50 (µg/mL), pseudovirus neutralization [23]: 16.7 µg/mL; IC50 (µg/mL), pseudovirus neutralization [24]: 11.7 µg/mL; IC50, pseudovirus neutralization [25]: 0.373 µg/mL; Fold IC50 increase relative to wild-type [26]: 10.7 fold"
4E10 (antibody),41.4 µg/mL,3.38 µg/mL,> 50 µg/mL,8.84 µg/mL,12.2 µg/mL,12.3 µg/mL,1.46 µg/mL,3.9 µg/mL,2.95 µg/mL,2.74 µg/mL,1.44 µg/mL,13.7 µg/mL,1.02 µg/mL,0.85 µg/mL,31.4 µg/mL,18.2 µg/mL,,,,,
2G12 (antibody),2.26 µg/mL,0.56 µg/mL,4.84 µg/mL,45.2 µg/mL,> 50 µg/mL,0.55 µg/mL,0.08 µg/mL,0.12 µg/mL,> 50 µg/mL,> 50 µg/mL,> 50 µg/mL,> 50 µg/mL,> 50 µg/mL,> 50 µg/mL,> 50 µg/mL,> 50 µg/mL,,,,,
1443_C16 (PG16) (TCN-116) (antibody),> 50 µg/mL,0.004 µg/mL,> 50 µg/mL,0.01 µg/mL,1.42 µg/mL,19.3 µg/mL,> 50 µg/mL,0.004 µg/mL,> 50 µg/mL,0.43 µg/mL,0.04 µg/mL,6.98 µg/mL,11.3 µg/mL,4.33 µg/mL,> 50 µg/mL,28.3 µg/mL,,,,,
5147_N06 (PGT-130) (antibody),,,,,,,,,,,,,,,,,0.136 µg/mL,> 50 µg/mL,> 50 µg/mL,0.006 µg/mL,"IC50, pseudovirus neutralization [27]: 1.12 µg/mL; IC50 (ug/mL), pseudovirus neutralization [28]: 0.474 µg/mL; IC50 (µg/mL), pseudovirus neutralization [21]: 0.049 µg/mL; IC50 (µg/mL), pseudovirus neutralization [22]: 0.065 µg/mL; IC50 (µg/mL), pseudovirus neutralization [23]: > 50 µg/mL; IC50 (µg/mL), pseudovirus neutralization [24]: > 50 µg/mL; IC50, pseudovirus neutralization [25]: 7.28 µg/mL; Fold IC50 increase relative to wild-type [26]: > 1000 fold; IC50 (ug/mL), pseudovirus neutralization [29]: 0.0378 µg/mL"
